According to article doi:10.1101/395996, “An interaction network of the human SEPT9 established by quantitative mass spectrometry reveals an interplay with myosin motors” (bioRxiv, 2018):

T1: 6his-SEPT9 (human, UniProt Q9UHD8 2-586)
T1 construct: SEPT9, human, PCR amplified from the GFP-SEPT9_i1 plasmid; the forward primer starts at the second codon (aag aag tct tac tca gga gg), the reverse primer holds the stop codon; also called 6his tagged SEPT9; 6his-tagged SEPT9; source: E. coli, purified (IMAC, approx. 70 % purity; desalted into PBS); not shown: His6, N-terminal, kept
T1 sequence (looked up): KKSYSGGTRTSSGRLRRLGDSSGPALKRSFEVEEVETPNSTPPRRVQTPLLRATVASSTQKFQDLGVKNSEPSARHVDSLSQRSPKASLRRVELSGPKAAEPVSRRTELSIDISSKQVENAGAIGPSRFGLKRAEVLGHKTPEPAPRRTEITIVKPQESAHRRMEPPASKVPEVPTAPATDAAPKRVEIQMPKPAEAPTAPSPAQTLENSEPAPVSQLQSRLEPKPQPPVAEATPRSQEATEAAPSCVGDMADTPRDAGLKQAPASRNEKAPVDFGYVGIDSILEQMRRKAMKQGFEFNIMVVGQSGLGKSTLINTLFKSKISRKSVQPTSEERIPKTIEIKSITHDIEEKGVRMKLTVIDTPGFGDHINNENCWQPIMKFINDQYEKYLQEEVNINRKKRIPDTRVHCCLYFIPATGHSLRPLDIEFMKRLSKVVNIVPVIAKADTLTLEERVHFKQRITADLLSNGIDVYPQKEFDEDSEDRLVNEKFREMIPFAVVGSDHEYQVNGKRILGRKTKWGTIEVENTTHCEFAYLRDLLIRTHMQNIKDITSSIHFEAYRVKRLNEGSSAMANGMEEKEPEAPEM


Molecular target: T1, 6his-SEPT9
Assay: pull-down; GST fusions immobilised on Glutathione Sepharose from crude E. coli extract, incubated with 2 µM 6his-SEPT9 for 1 h in PBS; Western blot with anti-6his antibody; free GST as control
Settings: both partners purified

binding result | Binder
binds | GST-MYO6_(835-1294) (domain or fragment, UniProt Q9UM54 835-1294, looked up, cloned in pGEX2T; also called C-terminal tail fragment of MYO6; source: E. coli, immobilised on Glutathione Sepharose from the crude extract; not shown: GST, N-terminal, kept) PRIDGLVKVGTLKKRLDKFNEVVSVLKDGKPEMNKQIKNLEISIDTLMAKIKSTMMTQEQIQKEYDALVKSSEELLSALQKKKQQEEEAERLRRIQEEMEKERKRREEDEKRRRKEEEERRMKLEMEAKRKQEEEERKKREDDEKRIQAEVEAQLARQKEEESQQQAVLEQERRDRELALRIAQSEAELISDEAQADLALRRSLDSYPVSKNDGTRPKMTPEQMAKEMSEFLSRGPAVLATKAAAGTKKYDLSKWKYAELRDTINTSCDIELLAACREEFHRRLKVYHAWKSKNKKRNTETEQRAPKSVTDYDFAPFLNNSPQQNPAAQIPARQREIEMNRQQRFFRIPFIRPADQYKDPQSKKKGWWYAHFDGPWIARQMELHPDKPPILLVAGKDDMEMCELNLEETGLTRKRGAEILPRQFEEIWERCGGIQYLQNAIESRQARPTYATAMLQSLLK
binds | GST-MYO1C_(809-1063) (domain or fragment, human, UniProt O00159 809-1063, looked up, MYO1C, C-terminal tail fragment, amino acids 809-1063, amplified from cDNA of human 1306 fibroblast mRNA; cloned in pGEX2T; also called C-terminal tail fragment of MYO1C; source: E. coli, immobilised on Glutathione Sepharose from the crude extract; not shown: GST, N-terminal, kept) LDHVRTSFLLNLRRQLPQNVLDTSWPTPPPALREASELLRELCIKNMVWKYCRSISPEWKQQLQQKAVASEIFKGKKDNYPQSVPRLFISTRLGTDEISPRVLQALGSEPIQYAVPVVKYDRKGYKPRSRQLLLTPNAVVIVEDAKVKQRIDYANLTGISVSSLSDSLFVLHVQRADNKQKGDVVLQSDHVIETLTKTALSANRVNSININQGSITFAGGPGRDGTIDFTPGSELLITKAKNGHLAVVAPRLNSR
